# Read-outs that look alike come from different tables or passages of the source.
# Legend:
# [1] = biological target: HLA-A*1101 (human); assay: competition with 125I-labeled standard probe peptide for purified HLA-A*1101, gel filtration
# [2] = biological target: HLA-A*1101 (human); assay: competition with 125I-labeled standard peptide for purified HLA-A*1101, gel filtration
# [3] = biological target: HLA-A*0201 (human); assay: competition with 125I-labelled standard peptide for purified HLA, gel filtration
# [4] = biological target: HLA-A*0201 (human); assay: competition with 125I-labeled standard probe peptide for purified HLA-A*0201, gel filtration
# [5] = biological target: HLA-A*0301 (human); assay: competition with 125I-labeled standard probe peptide for purified HLA-A*0301, gel filtration
# [6] = biological target: HLA-A*1101 (human); assay: competition with 125I-labeled standard peptide for purified HLA, gel filtration
# [7] = biological target: HLA-A*0301 (human); assay: as above
# [8] = biological target: HLA-A*1101 (human); assay: competition with 125I-labelled standard peptide for purified HLA, gel filtration
# [9] = biological target: HLA-A*0301 (human); assay: as above
# [10] = biological target: HLA-A*6801 (human); assay: as above
# [11] = biological target: HLA-A*3101 (human); assay: as above
# [12] = biological target: HLA-A*3301 (human); assay: as above
# [13] = biological target: HLA-A*2402 (human); assay: as above
# [14] = biological target: HLA-B*5101 (human); assay: competition with 125I-labeled standard peptide for purified HLA, gel filtration
# [15] = biological target: HLA-B*5401 (human); assay: as above
# [16] = biological target: HLA-B*5301 (human); assay: as above
# [17] = biological target: HLA-B*3501 (human); assay: as above
# [18] = biological target: HLA-B*0702 (human); assay: as above
# [19] = biological target: HLA-B*5101 (human)
# [20] = biological target: HLA-B*5301 (human)
# [21] = biological target: HLA-B*3501 (human)
# [22] = biological target: HLA-B*5401 (human)
# [23] = biological target: HLA-B*0702 (human)
# [24] = biological target: HLA-A*0201 (human); assay: competition against 125I-labelled standard peptide on purified HLA-A*0201, gel filtration
# [25] = remark: other sources report otherwise
binder,measurement,setting,value
WLQPLADAK (modifications not checked) [HPV31 E1 489 peptide … (SEQ ID NO: 41921)],relative binding ratio (IC50 of standard peptide / IC50 of test peptide),[1],0.0002
GDTPEWIQR (modifications not checked) [HPV45 E1 327 … (SEQ ID NO: 43619)],relative binding ratio (IC50 of standard peptide / IC50 of test peptide),[1],0.0002
GVLILALLR (modifications not checked) [HPV45 E1 265 … (SEQ ID NO: 43630)],relative binding ratio (IC50 of standard peptide / IC50 of test peptide),[1],0.14
LILALLRYK (modifications not checked) [HPV45 E1 267 peptide … (SEQ ID NO: 43681)],relative binding ratio (IC50 of standard peptide / IC50 of test peptide),[2],0.18
IAEGFKTLI (modifications not checked) [HPV18 E1 254 peptide …],binding affinity ratio (IC50 of standard peptide / IC50 of test peptide),[3],0.0003
ILLTTNIHPA (modifications not checked) [HPV18 E1 569 peptide …],binding affinity ratio (IC50 of standard peptide / IC50 of test peptide),[3],0.08
ILYAHIQCL (modifications not checked) [HPV18 E1 266 peptide …],binding affinity ratio (IC50 of standard peptide / IC50 of test peptide),[3]; [25],0.081
"GTGCNGWFYV (modifications not checked) [HPV31 E1 peptide … (position 11, 10 amino acids)]",relative binding ratio (IC50 of standard peptide / IC50 of test peptide) (ratio to standard peptide),[4],0.0006
"STLRLCVQST (modifications not checked) [HPV31 E7 peptide … (position 63, 10 amino acids)]",relative binding ratio (IC50 of standard peptide / IC50 of test peptide),[4],0.0012
"TLRLCVQST (modifications not checked) [HPV31 E7 peptide … (position 64, 9 amino acids)]",relative binding ratio (IC50 of standard peptide / IC50 of test peptide),[4],0.0061
"NAKAAMLAK (modifications not checked) [HPV16 E1 peptide … (position 202, 9 amino acids)]",binding affinity ratio (IC50 of the standard peptide / IC50 of the test peptide),[5],0.0005
same,relative binding ratio (IC50 of standard peptide / IC50 of test peptide),[6],0.0031
same,relative binding ratio (IC50 of standard peptide / IC50 of test peptide),[7],0.0005
"NINAGTDSR (modifications not checked) [HPV16 E1 peptide … (position 567, 9 amino acids)]",binding affinity ratio (IC50 of the standard peptide / IC50 of the test peptide),[5],0.0005
same,relative binding ratio (IC50 of standard peptide / IC50 of test peptide),[6],0.0002
same,relative binding ratio (IC50 of standard peptide / IC50 of test peptide),[7],0.0005
"NVLKTSNAK (modifications not checked) [HPV16 E1 peptide … (position 196, 9 amino acids)]",binding affinity ratio (IC50 of the standard peptide / IC50 of the test peptide),[5],0.0005
same,relative binding ratio (IC50 of standard peptide / IC50 of test peptide),[6],0.0015
same,relative binding ratio (IC50 of standard peptide / IC50 of test peptide),[7],0.0005
CMSCCRSSR (modifications not checked),binding affinity ratio (IC50 of standard peptide / IC50 of test peptide),[8],0.0001
same,binding affinity ratio (IC50 of standard peptide / IC50 of test peptide),[9],0.0033
same,binding affinity ratio (IC50 of standard peptide / IC50 of test peptide),[10],0.0011
same,binding affinity ratio (IC50 of standard peptide / IC50 of test peptide),[11],0.082
same,binding affinity ratio (IC50 of standard peptide / IC50 of test peptide),[12],0.12
LIRCINCQK (modifications not checked),binding affinity ratio (IC50 of standard peptide / IC50 of test peptide),[8],0.0009
same,binding affinity ratio (IC50 of standard peptide / IC50 of test peptide),[9],0.0025
same,binding affinity ratio (IC50 of standard peptide / IC50 of test peptide),[10],0.0021
same,binding affinity ratio (IC50 of standard peptide / IC50 of test peptide),[11],0.0012
same,binding affinity ratio (IC50 of standard peptide / IC50 of test peptide),[12],0.0041
TTLEQQYNK (modifications not checked),binding affinity ratio (IC50 of standard peptide / IC50 of test peptide),[8],0.29
same,binding affinity ratio (IC50 of standard peptide / IC50 of test peptide),[9],0.01
same,binding affinity ratio (IC50 of standard peptide / IC50 of test peptide),[10],0.3
same,binding affinity ratio (IC50 of standard peptide / IC50 of test peptide),[12],0.066
YAVCDKCLK (modifications not checked),binding affinity ratio (IC50 of standard peptide / IC50 of test peptide),[8],0.001
same,binding affinity ratio (IC50 of standard peptide / IC50 of test peptide),[9],0.0003
same,binding affinity ratio (IC50 of standard peptide / IC50 of test peptide),[10],0.012
same,binding affinity ratio (IC50 of standard peptide / IC50 of test peptide),[11],0.0015
IVCPICSQK (modifications not checked) [HPV16 E7 peptide …],binding affinity ratio (IC50 of standard peptide / IC50 of test peptide),[8]; [25],0.0065
same,binding affinity ratio (IC50 of standard peptide / IC50 of test peptide),[9]; [25],0.0077
same,binding affinity ratio (IC50 of standard peptide / IC50 of test peptide),[10]; [25],0.01
same,binding affinity ratio (IC50 of standard peptide / IC50 of test peptide),[12]; [25],0.0016
"PYKLPDLCTEL (modifications not checked) [HPV18 E6 position 11, 11-mer …]",binding affinity ratio (IC50 of standard peptide / IC50 of test peptide),[13],0.0064
"VFEFAFKDLF (modifications not checked) [HPV18 E6 position 44, 10-mer …]",binding affinity ratio (IC50 of standard peptide / IC50 of test peptide),[13],0.036
"VYCKTVLEL (modifications not checked) [HPV18 E6 position 33, 9-mer …]",binding affinity ratio (IC50 of standard peptide / IC50 of test peptide),[13],0.022
"CMCCKCEARI (modifications not checked) [HPV18 E7 position 63, 10-mer …]",binding affinity ratio (IC50 of standard peptide / IC50 of test peptide),[13],0.0001
EPPKLRSTAA (modifications not checked) [HPV16 E1 308 …],binding affinity ratio (IC50 of standard peptide / IC50 of test peptide),[14],0.0002
same,binding affinity ratio (IC50 of standard peptide / IC50 of test peptide),[15],0.02
same,binding affinity ratio (IC50 of standard peptide / IC50 of test peptide),[16],0.0002
same,binding affinity ratio (IC50 of standard peptide / IC50 of test peptide),[17],0.0003
same,binding affinity ratio (IC50 of standard peptide / IC50 of test peptide),[18],0.0002
WPYLHNRLV (modifications not checked),binding affinity ratio (IC50 of standard peptide / IC50 of test peptide),[14],0.11
same,binding affinity ratio (IC50 of standard peptide / IC50 of test peptide),[15],0.18
same,binding affinity ratio (IC50 of standard peptide / IC50 of test peptide),[16],0.0002
same,binding affinity ratio (IC50 of standard peptide / IC50 of test peptide),[17],0.0003
same,binding affinity ratio (IC50 of standard peptide / IC50 of test peptide),[18],0.052
WPYLHNRLVV (modifications not checked),binding affinity ratio (IC50 of standard peptide / IC50 of test peptide),[14],0.074
same,binding affinity ratio (IC50 of standard peptide / IC50 of test peptide),[15],0.076
same,binding affinity ratio (IC50 of standard peptide / IC50 of test peptide),[16],0.0002
same,binding affinity ratio (IC50 of standard peptide / IC50 of test peptide),[17],0.0012
same,binding affinity ratio (IC50 of standard peptide / IC50 of test peptide),[18],0.095
DPQERPRKL (modifications not checked) [HPV16 E6 11 …],binding affinity ratio (IC50 of standard peptide / IC50 of test peptide),[14],0.0001
same,binding affinity ratio (IC50 of standard peptide / IC50 of test peptide),[15],0.0002
same,binding affinity ratio (IC50 of standard peptide / IC50 of test peptide),[16],0.0001
same,binding affinity ratio (IC50 of standard peptide / IC50 of test peptide),[17],0.0001
same,binding affinity ratio (IC50 of standard peptide / IC50 of test peptide),[18],0.0001
QPPKLRSSV (modifications not checked),binding affinity ratio (IC50 of standard peptide / IC50 of test peptide),[19],0.0002
same,binding affinity ratio (IC50 of standard peptide / IC50 of test peptide),[20],0.0002
same,binding affinity ratio (IC50 of standard peptide / IC50 of test peptide),[21],0.0003
QPPKLRSSVA (modifications not checked),binding affinity ratio (IC50 of standard peptide / IC50 of test peptide),[19],0.0002
same,binding affinity ratio (IC50 of standard peptide / IC50 of test peptide),[22],0.039
same,binding affinity ratio (IC50 of standard peptide / IC50 of test peptide),[20],0.0002
same,binding affinity ratio (IC50 of standard peptide / IC50 of test peptide),[21],0.0003
RPIVQFLRY (modifications not checked) [HPV18 E1 447 peptide …],binding affinity ratio (IC50 of standard peptide / IC50 of test peptide),[20],0.023
same,binding affinity ratio (IC50 of standard peptide / IC50 of test peptide),[21],0.04
same,binding affinity ratio (IC50 of standard peptide / IC50 of test peptide),[23],0.0033
RPIVQFLRY (modifications not checked) [HPV45 E1 433 peptide …],binding affinity ratio (IC50 of standard peptide / IC50 of test peptide) (ratio relative to standard peptide),[20],0.023
same,binding affinity ratio (IC50 of standard peptide / IC50 of test peptide) (ratio relative to standard peptide),[21],0.04
same,binding affinity ratio (IC50 of standard peptide / IC50 of test peptide) (ratio relative to standard peptide),[23],0.0033
KLLSKLLCV (modifications not checked) [HPV16 E1 292 …],relative binding ratio (IC50 of standard peptide / IC50 of test peptide),[24],0.051
LACSWGMVV (modifications not checked) [HPV16 E1 267 …],relative binding ratio (IC50 of standard peptide / IC50 of test peptide),[24],0.0006
LLCVSPMCM (modifications not checked) [HPV16 E1 297 …],relative binding ratio (IC50 of standard peptide / IC50 of test peptide),[24],0.0008
LLITSNINA (modifications not checked) [HPV16 E1 562 …],relative binding ratio (IC50 of standard peptide / IC50 of test peptide),[24],0.0022
WLQPLADAK (modifications not checked) [HPV31 E1 489 peptide … (SEQ ID NO: 34685)],relative binding ratio (IC50 of standard peptide / IC50 of test peptide),[5],0.0005
